The text below walks through data of US20200377594A1 (MorphoSys, published 2020).

Test [1] has as its target T1, recombinant cynomolgus CD3e (22-49)-Fc2(K105-K330) (cynomolgus monkey).
T1 construct: also called cyCD3e(22-49)_Fc2(K105-K330); cyCD3 epsilon 22-49/Fc
As to the kind of experiment: ELISA, 1 nM antigen coated, IgG titrated, anti-human F(ab')2-AP detection. For orientation: An ELISA detects its analyte on a solid surface through an enzyme-linked reagent.

The target in test [2] is T2, recombinant human CD3e (22-49)-Fc2 (K105-K330) (human).
T2 construct: also called hCD3e(22-49)_Fc2(K105-K330); hCD3 epsilon 22-49/Fc
Kind of test: ELISA, 5 nM antigen coated, IgG titrated, anti-human F(ab')2-AP detection.

The target of test [3] is T3, human CD3 expressed on cells (Jurkat cells; human lymphocytes/PBMCs) (human, UniProt P07766 23-207).
T3 construct: on the cells it stands in the CD3/TCR complex; also called human CD3 epsilon; CD3 positive Jurkat cells
T3 sequence (P07766 23-207): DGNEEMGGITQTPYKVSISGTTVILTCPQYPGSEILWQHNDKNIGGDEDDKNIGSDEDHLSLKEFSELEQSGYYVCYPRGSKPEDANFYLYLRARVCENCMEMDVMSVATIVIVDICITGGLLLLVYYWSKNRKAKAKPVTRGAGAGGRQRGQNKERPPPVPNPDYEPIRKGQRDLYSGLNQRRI
Kind of test: flow cytometry on CD3 positive Jurkat cells, IgG titrated, anti-human F(ab')2-PE detection.

Test [4] has as its target T4, cynomolgus CD3 expressed on cynomolgus lymphocytes/PBMCs (cynomolgus monkey, UniProt Q95LI5 22-198).
T4 construct: also called cynomolgus CD3 epsilon
As to the kind of experiment: flow cytometry on cynomolgus PBMCs (lymphocyte gate), detection with anti-human F(ab')2-PE.

The target of test [5] is Human CD3e (22-118) Flag_chLys_avi (human). As to the kind of experiment: SPR (Biacore T200), IgG captured on MabSelect SuRe, hCD3e analyte 4.1-999 nM, 1:1 fit; comment: slightly heterogeneous binding. On the technique in general: In SPR one partner is held on a chip, and binding of the other changes the refractive index at the surface.
Chain of Human CD3e (22-118) Flag_chLys_avi (human) (chain, as listed by the source limits assumed): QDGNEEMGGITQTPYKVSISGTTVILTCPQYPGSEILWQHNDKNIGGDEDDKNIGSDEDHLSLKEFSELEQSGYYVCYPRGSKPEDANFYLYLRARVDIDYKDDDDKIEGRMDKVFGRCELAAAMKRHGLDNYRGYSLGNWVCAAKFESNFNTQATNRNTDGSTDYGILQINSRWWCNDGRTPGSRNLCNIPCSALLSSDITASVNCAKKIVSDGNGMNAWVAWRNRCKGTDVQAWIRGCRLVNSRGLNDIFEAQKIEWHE
For test [6] the target is unchanged. Kind of test: SPR (Biacore T200), IgG captured on MabSelect SuRe, hCD3e analyte 4.1-999 nM, 1:1 fit; comment: heterogeneous binding.
The target is the same in test [7]. As to the kind of experiment: SPR (Biacore T200), IgG captured on MabSelect SuRe, hCD3e analyte 4.1-999 nM, 1:1 fit.
The target is the same in test [8]. Kind of test: SPR (Biacore T200), IgG captured on MabSelect SuRe, hCD3e analyte, 1:1 fit; comment: only conc. 37-333 nM used for evaluation.
Test [9] shares this target. As to the kind of experiment: SPR (Biacore T200), IgG captured on MabSelect SuRe, hCD3e analyte, 1:1 fit; comment: weak binding signals, only 333 nM & 999 nM evaluated.

Positions count from the first letter of the chain named.

T4 sequence (Q95LI5 22-198): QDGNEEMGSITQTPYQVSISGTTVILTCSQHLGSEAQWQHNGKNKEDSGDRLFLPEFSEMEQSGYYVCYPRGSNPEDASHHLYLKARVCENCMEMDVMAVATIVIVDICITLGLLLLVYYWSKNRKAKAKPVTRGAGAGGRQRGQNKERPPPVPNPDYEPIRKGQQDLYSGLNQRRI

B1: mAb#München (antibody, human IgG1, lambda, V domains shown)
VH: EVQLVESGGGLVKPGGSLRLSCAASGFTFNTYAMNWVRQAPGKGLEWVGRIRSKYNNYATYYADSVKDRFTISRDDSKNTLYLQMNSLKTEDTAVYYCTTHGNFGNSYVSWFAYWGQGTLVTVSS
VL: QTVVTQEPSLTVSPGGTVTLTCRSSTGAVTTSNYANWVQQKPGQAPRGLIGGTKFLAPGTPARFSGSLLGGKAALTLLGAQPEDEAEYYCALWYSNLWVFGGGTKLTVLG
notes: also called Munchen
Broadly, the EC50 is the concentration giving half of the maximal effect. What is called EC50 (read off the curve) is the concentration needed to bring the measured effect to its halfway point. Broadly, the Kd is the concentration at which binding is half-saturated. Broadly, the koff is a measure of how fast the partners let go of each other. The kon is the second-order rate constant of association. As for B1, the EC50 in [1] stood at 1.43 nM. Moreover, the half-maximal effective concentration (EC50) in test [2] came to 0.6 nM. In test [3], this molecule showed an EC50 of 6.6 nM. The “EC50 (read off the curve)” value in test [4] was ~20 nM. Moreover, in test [5], the Kd worked out at 78 nM, the off-rate constant (koff) came out at 0.00658 s⁻¹ and the kon stood at 84000 M⁻¹ s⁻¹.

B2: mAb#Bremen (antibody, human IgG1, lambda, V domains shown)
VH: B1 VH
VL: B1 VL with L78S, A80V
Regarding B2, the EC50 in test [1] was determined as 0.8 nM. For the same molecule, the EC50 in test [2] was 1.1 nM. In test [3], the EC50 was 6.3 nM. Besides, the 50% effective concentration (EC50 (read off the curve)) in [4] was ~20 nM. In test [6], this molecule had a Kd of 74 nM, a koff of 0.00479 s⁻¹ and a kon of 65000 M⁻¹ s⁻¹.

B3: SP34 (m/h chimeric) IgG (antibody, V domains shown)
VH: EVQLVESGGGLVQPKGSLKLSCAASGFTFNTYAMNWVRQAPGKGLEWVARIRSKYNNYATYYADSVKDRFTISRDDSQSILYLQMNNLKTEDTAMYYCVRHGNFGNSYVSWFAYWGQGTLVTVSS
VL: QAVVTQESALTTSPGETVTLTCRSSTGAVTTSNYANWVQEKPDHLFTGLIGGTNKRAPGVPARFSGSLIGDKAALTITGAQTEDEAIYFCALWYSNLWVFGGGTKLTVLG
notes: Murine SP34 variable domains tested as mouse/human chimeric IgG; also called SP34 IgG (m/h chimera)
Consider B3, for which the figures for the EC50 in test [1], in test [2] and in [3] were 0.15 nM, 0.39 nM and 1.4 nM, respectively. In addition, the Kd in test [7] was determined as 1.7 nM. Further, the off-rate (koff) in test [7] was found to be 0.000835 s⁻¹. This molecule also showed an on-rate constant (kon) in test [7] of 487000 M⁻¹ s⁻¹. In addition, the “EC50 (read off the curve)” value in test [4] was ~3 nM.

B4: mAb#Nürnberg (antibody, human IgG1, lambda)
heavy: not shown
light: QTVVTQEPSLTVSPGGTVTLTCRSSTGAVTTSNYANWVQQKPGQAPRGLIGGTNKRAPGTPARFSGSLLGGKAALTLSGVQPEDEAEYYCALWYSNLWVFGGGTKLTVLGQPKAAPSVTLFPPSSEELQANKATLVCLISDFYPGAVTVAWKADSSPVKAGVETTTPSKQSNNKYAASSYLSLTPEQWKSHRSYSCQVTHEGSTVEKTVAPTECS
B4: the EC50 in test [1] was determined as 0.21 nM. In [2], the EC50 was 0.34 nM. Also, the EC50 in test [3] turned out to be 1 nM. In test [8], this molecule came in with a Kd of 48 nM, a koff of 0.00387 s⁻¹ and a kon of 80000 M⁻¹ s⁻¹.

B5: mAb#Köln (antibody, human IgG1, lambda)
heavy: not shown
light: B4 light with Q1E, T2L
Consider B5, for which the results for the EC50 in [1], in test [2] and in test [3] were 0.2 nM, 0.31 nM and 1.8 nM, respectively. The dissociation constant (Kd) in test [5] was found to be 51 nM. For the same molecule, in [5], the koff came to 0.00386 s⁻¹. In test [5], this molecule displayed a kon of 76200 M⁻¹ s⁻¹.

B6: mAb#Gladbach (antibody, human IgG1, lambda, V domains shown)
VH: B1 VH with E1Q, V37I, G49S, D76N, S77A, T80S, K89R, T90A, T99V, T100R
VL: B1 VL with L78S, A80V
With B6, the EC50 in [1] was 0.21 nM. Further, the EC50 in test [2] came out at 0.38 nM. In test [3], the EC50 is 1.4 nM. Also, the “EC50 (read off the curve)” value in test [4] is ~6 nM. Also, in test [5], the Kd is 54 nM, the koff is 0.00385 s⁻¹ and the kon came to 71800 M⁻¹ s⁻¹.

B7: mAb#Freiburg (antibody, human IgG1, lambda, V domains shown)
VH: B1 VH
VL: B1 VL with K54N, F55K, L56R
Consider B7, for which the EC50 in [1] worked out at 1.26 nM; in [2] it was 0.91 nM; in [3], 10.7 nM. For the same molecule, the “EC50 (read off the curve)” value in [4] was ~10 nM. Besides, the affinity in test [6], expressed as Kd, was 130 nM. Further, the koff in test [6] turned out to be 0.00467 s⁻¹. The molecule also displayed an association rate constant (kon) in [6] of 35200 M⁻¹ s⁻¹.

B8: mAb#Mainz (antibody, human IgG1, lambda, V domains shown)
VH: B1 VH with E1Q, V37I, G49S, D76N, S77A, T80S, K89R, T90A, T99V, T100R
VL: B1 VL with T2A, K54N, F55K, L56R, G59W, L77I, L78T, P82A, E87D
B8: the EC50 turned out to be 1.53 nM in test [1], 1.21 nM in test [2] and 9.4 nM in test [3]. In addition, binding in test [9] was characterised by a dissociation constant (Kd) of 600 nM. This molecule displayed a koff in [9] of 0.00847 s⁻¹. Also, in test [9], the kon stood at 14200 M⁻¹ s⁻¹.
